This series deals with the molecule itself. The series is described as follows: AUC; sedimentation equilibrium, 20 °C, 25 mM Tris-HCl pH 8.0, 50 mM NaCl with and without 20 mM EDTA; 13, 33 and 50 μM protein; 25,000, 35,000 and 45,000 rpm; monomer-dimer model, dimer to monomers.

B1: AYEdes (N-terminal His6 tag followed only by the 70 designed residues of AYEdesign) (other)
chain: KTIFVIVPTNEEQVAFLEALAKQDELNFDWQNPPTEPGQPVVILIPSDMVEWFLEMLKAKGIPFTVYVEE
As a reminder, the Kd is the constant that tells how readily two partners part at equilibrium. A higher Kd goes with a looser complex. Turning to B1, the Kd is about 150 µM.

The record behind these values is article PMC3764424, “High-resolution Structural and Thermodynamic Analysis of Extreme Stabilization of Human Procarboxypeptidase by Computational Protein Design” (Journal of Molecular Biology, 2007).
